The nature of the series: soluble on expression in E. coli; label from the status in PepcDB or PDB records.
On to “MEQFPNSLSITLLGSAGGAAKAVLAILNQAIANEKDPIYEVLKNAKFHLVDIKQKDRTYYDELFSNLKGQLYLYEINLQNVVEFKQHLKEKRTSVVIDVSGADTIRVLSCCNELGICYINSALENEAVDQDDSLIGFQLTERYTRFEKEKEKFTNTKAIIGSGMNPGVVQWMVVELMKERPNERPRACYIVEHDTSFLNDTALIKPHTLYASWAVERFLDEAIWSYPMYMSHHRPLYFYEDVYASEYKVKLGEKEFYGCLMPHEEVLILGKNFNMEVGFLYRINEYTTNIIRQNLDQVEDLWNWNRKVFNPAEEEVAGEDLVGVLLVYENSETYMYNVMNSSQVFRKYKTNATYFQVGCGIYAGLSSLLLDQFEQGAYYVEELLLNTESKYGEYLNLYMKDFVIGHNNFTDGLLHDRVRWM”, for which the “soluble on expression in E. coli” value is listed as “not soluble”.

Regarding “MEQIVSSLWSDCLNHLQTKVSPIDYSTWLRPLQASFANEELTLYAQNPFVENWVKDKFLTEIIDLARFLSKNEQLKITIRVGNKPTEQNLSASSTNKEELTQDTVHKFKTGLNGRLTFDNFVQGKSNQLAKAVAQQVADNPGESHCNPFSLYGGTGLGKTHLLHAVGNEILKRNPQARVVYIHSERFVQDMVKALKNNTIENFKKFYRSLDVLMIDDIQFFAKKEASQEEFFHTFNSLFERNKQIILASDHFPKNIENIEERIKSRLNWGVSTAIEPPELETRVAILMKKAEERNVELPEEVAFYLGQKLRTNVRELEGAINRVSAWCNFTKRQITIDAVRETLKDLIASYDHLVTIENIQKIVAEYYNIKMADLKSKSRTRSIARPRQMAMALAKELTSHSLPEIGREFGGRDHTTVMHACKTINELRDTDNSIQEDYTNLTRKLSSLEHHHHHH”, the “soluble on expression in E. coli” value was “soluble”.

In the case of “MEQNLKNIKISIIIPTLNEVGNIQQTIATTQPSVNIEVIVVDGGSQDDTVAIAQSLGVKVISSSPGRAVQMNTGAALAAGEILLFLHADTRLPVGFDEMIRAALQQPGVVAGAFALRIDADLAGLRWVEKGVYWRSHFFQMPYGDQAIFMTKAVFEKVGGFSELPIMEDFELMRRLKHIGKITVLGVAVITSGRRWLQRGVFQTTLINQVVIIAYLLGVAPAQLHSWYRQGKFFRIGGRLLEHHHHHH”, the “soluble on expression in E. coli” value was “soluble”.

For the sequence “MEQPFDLAAELAKQPHLLEIAGNLLMKSGPEDYIGAVLCLRGTLYFKKAHTPLVRESLCQCFDEFERLAEPHLTWLWREEPAQGKPLTAYRDTQPLREMMGAMDEDDHLSFCYTSGKKSRDAGAWLFDIYGKRSWQAKMGHDLSVLEFSVPLLYQERQPLDFLQLFIDFARRLEPEQGYAGHAYNLSPTSWDNDEPSEAFMAARMPGLDVGTACLLANTPEFKPTRIKTVSWLTLLNNERLALAGGLDALRAQLPSSHFAFYRYGDGVVIQAGAYPYIAGDAEDSRPAPYVLLNHALKGIRYETIGSLHGGSHDGELRLVGWAADQWLKRLDVEDSEIPRWCDKLLSAEPYLDATNTLPERL”, the “soluble on expression in E. coli” value is on record as “not soluble”.

Turning to “MEQQLTIEMIADAFSYDITGFDCGEEALNTFLKEHLKRQHDGQILRGYALVSGDTVPRLLGYYTLSGSCFERGMLPSKTQQKKIPYQNAPSVTLGRLAIDKSVQGQGWGEMLVAHVMRVVWGASKAVGIYGLFVEALNEKAKAFYLRLGFIQLVDENSNLLFYPTKSIEQLFTDDES”, the “soluble on expression in E. coli” value is reported as “not soluble”.

Turning to “MEQQRSFQTETGGHLYLVPTPIGNLDDMTFRAVKTLTAVDLIAAEDTRNTQKLLNHFEITTKQISFHEHNTQERIPQLIAKLKQGMQIAQVSDAGMPSISDPGHELVNACIDAHIPVVPLPGANAGLTALIASGLAPQPFYFYGFLDRKPKDRKAEIAGLAQRPETLIFYEAPHRLKKTLQNLAAGFGDERPAVLCRELTKRYEEFLRGSLAELANWAATDTVRGEFVVLVGGNPAPTTAATTAVDLSEPIDVQVDRLIAAGEKPNDAIKEVAKLRGAKKQEIYRQYHHLDEE”, the “soluble on expression in E. coli” value is “soluble”.

As for “MERARVIAEAAAHISRELGAAAIMVSGDLNFEGIETGEIPVYYISMRPKSIIDHLVATSKDGKSPVKELGDQLTREASGNVEYVQHAAAIEYALEGPKNGIVVGVIETRGSSSIIVHNLDDNPLIKAMKECEERVNPEVMNAVLKIAFDIALTGREGKKIGAAFIVGDSEEVLKRSHQIILNPYEGHEEAHRNILDRRNWESIKEFALLDGVFVIDETGIVRAAGRYLDVDGKNIDIEKGLGGRHVSAAAISRDTVAISVTVSESGGVLRVYKDAKETICMESLQPASRYV”, the “soluble on expression in E. coli” value is “soluble”.

Consider “MEREQALWIVKQQLTEQRYEHTLGVVETAVKLAKQYGADAKKAELAAIFHDYAKFRPVEEMKQIILAQNMPNDLLAYNSELWHAPVGAYLVQTEVGIDDPEVLDAIRYHTSGRAGMTVLEKIIYLADYIEPGRRFPGVDDVRRLAEEDLNRALLQAVKNTIAFLLEKRQLIYPDTIHAYNSLMREVKGEAKR”, for which the “soluble on expression in E. coli” value is recorded as “not soluble”.

“MERVNGEDIWQDREIRFDVDHKLLRLINGEIQVAKIEHVEDTKGNNGDRGTMRVTNLRLIWHAASMPRINITIGWNAITGVQSKQTTSLVTRNRGISNEAIYVLAKVSATTTKFEFIFTTTNPASHSKLFNTISSISRAYETTKMYRELKMRGVFIREDGTLKILPQETIIEKVNGVWNLSTETGSLGVFVITNIRVVWYAEMNIGYNVSVPYITLYSVRVRESKFGMALVLETTTSSGEYVLGFRVDPAERLQNLLKTVQSLHKAHLLKPIFGVSYVKEIAEKVEPRKDDDEIDIIDNNEDDVEIDDKIRPDAFASYFDGEHTATDEKQLPVLNPELGLAIEPIRNGFTLHDLWNIHVDV”: the “soluble on expression in E. coli” value is given as “not soluble”.

“MERYNTMSGKKTESSDNIVLYPGLVKRLIEKGMEALKEKDAKKALTMFEQAEQYDAEPSQILFGKALCYVELGKLDDAVLLTDQMLRNDIGNYYDILQIHLSLLVQLGRYDEVVEMLDVVLAEDRLPAKHAESFYQLLHFSRQMVEDSPTYIKEPLSEELDLKETYDDINERDSLEQWHFLQQMRKHNNPADIRTLLSFVESESNDPALRSYALHMLTMHKVEKRVRIRKFDQEAEVIPVELNADEQQRFGNAVVEQLEARLAVENPSLFKMAEQLWWQFLYALYPFTPKPEQKDLWAGAVHVAVHESNGLPFDEEEIAGMYNCRVQQMLEKGEEIHFVETETFQGISGHSFRMAGDPLEHHHHHH”: the “soluble on expression in E. coli” value is reported as “soluble”.

Turning to “MESESIVYGCIRDWPGDSMERRMRRAANRRVLDSLPGGEAWPFLGREMFSRCEQSGAGLYQTQIIHFGASYQAIEYEWSLWVEQFEALLRRLYWASAVVHLETEVNGSHTFRWESERGFHTPQESDLQVRCAWEREGGRR”, the “soluble on expression in E. coli” value is “not soluble”.

For “MESFRFDPAGNLLDNAPAPDGHQNDSLLGNLLSQYAGRHYRYDSRGNLVEKRVNGSLTRLEWDSHSRLSRLIAPDGQRTDYHYDPLGRRIAKISQGQATLYGWDGDVLAFETRDEEAVHYLFEPDSFVPLAQVHTDAIRGVKVPAWSQHHPYDPDKDPLRQPAPEPEAPKAVYYYHTDHLGTPQALTDEQGLLALEMDYQAWGQAREVIADAAGKAGIRNPFRFQGQYHDDESGLHYNRHRYYDPEIGRFISRDPIGLKGGYNLFAYAPNTIEWVDPFGLTKLRETDPKARSLSNVQTRCWYLREESKIGYQIDCTKPIKQQARQAARLRNEARIRARLLMADREKAIALHQSDPNLTFKELMALKENKKGLTGKDAYQDIVDSASKSRQSVNKALLEGVDCDKVLEGILEHHHHHH”, the “soluble on expression in E. coli” value is recorded as “soluble”.

Turning to “MESKAENRKKILQMLKNFSDYEKRRQNKDVLKQLTASSKWKSAKKIALYMSMPIEFNLTELFDQSDDKEILIPKCLPERQMIFAKYDKENLVRSKFGLLEPKSEIAVEPDFILVPGLIWNDEGYRIGFGGGYYDRYLANFEGSTASVLYDFQKMDFEAESHDIAVQELFIGRKNNEFLEHHHHHH”, the “soluble on expression in E. coli” value is reported as “soluble”.

On to “MESKKRSSDKKSTEVDSMSDKESLYVSASDQPPAEITIKLEKDTKRKITIISEVENPKRARRGSADLRRQAIVNSAIRSAQSTASSRSRSRSRSRSRSTMNQQIRLARTRSASGGKLRRSRSARRRSPSSSASRSRSRSTSRTRAQSIPIRYRDRPEKIEKPIQPLPPLRLPTHLTKKSSVGSKKLPPPDCINLPSPLFILTEQQVIGASEKKTVQFVTKVLLTSKKLSLDDRKLLFAEMVEAEYVGTSRSSTDLNKSSDDEPEEEFATKIHYSSKGIYIHTVQNVRKIRSGKTSSITEEKSYANICKTKISGDHGKSTEGFLNVQCSETISVVDQKYIRSEEFKIGLTGVNVSGNVSINSSKTTFDPTKTITFSEDLMFDSKNIGITIRHSSVAEMKEMWHHEMGSFGEETSEYRELKFFFDEKKKDDNKTVGKSVVSILQGTKPSAPPASTSSSSKNSSSINSPKTPNISGSSRRSRSRAKRHKALQKRDSKTNRTPSPDRQSCKKDARPDQDPIKLSEIKVSEHVDSTGNETFYQSFPKATSTPKSPASSLNSSVLESKVKNSMQKTPDEGPSRRGAMSIRERSVSRNGDNEIDLDKSLSLKKPSASKNLASLLEKKEEARKTDVTSSMISSKPPTSPGTSVYMYNTGSANSTFMSAKDLHKERVAASTGPRSASKSPKGTLRVKETKVIREVRQEDGKPPEISEKKEETVKEEKVNLSERLRARSRASSPATPTLKRTFNQTDESNIVTLSAVKETHQTLEMTPIKVNSETVPSTSYGQRAFPESVQLDMLIDKKRLVLNVNFMLLAEKHPEVEILGFTFKGQKLWEKSSEWNLTSANTTSHTKTIARQASNILGDEEKKDEEQK”, for which the “soluble on expression in E. coli” value is on record as “not soluble”.

In the case of “MESLASLYKNHIATLQERTRDALARFKLDALLIHSGELFNVFLDDHPYPFKVNPQFKAWVPVTQVPNCWLLVDGVNKPKLWFYLPVDYWHNVEPLPTSFWTEDVEVIALPKADGIGSLLPAARGNIGYIGPVPERALQLGIEASNINPKGVIDYLHYYRSFKTEYELACMREAQKMAVNGHRAAEEAFRSGMSEFDINIAYLTATGHRDTDVPYSNIVALNEHAAVLHYTKLDHQAPEEMRSFLLDAGAEYNGYAADLTRTWSAKSDNDYAQLVKDVNDEQLALIATMKAGVSYVDYHIQFHQRIAKLLRKHQIITDMSEEAMVENDLTGPFMPHGIGHPLGLQVHDVAGFMQDDSGTHLAAPAKYPYLRCTRILQPGMVLTIEPGIYFIESLLAPWREGQFSKHFNWQKIEALKPFGGIRIEDNVVIHENNVENMTRDLKLA”, the “soluble on expression in E. coli” value is given as “soluble”.

With “MESSDIASRIWLIAGPTASGKSAYALDLAERIDGEIVNADSMQIYAGLRVLTAGPSQEETARAPHHLFQIVDPALGWSVGRWLEAATQALAEIQARGKPAIVVGGTGLYFRALTHGLADVPPVPETQREISSLLYAARGETEFREILKPLDPEAEARIESGDRQRLVRAHAVAITTGKSLTAWQTDTKPALAPGSWKGLVLDPPRAELYARCDARLAVMVEQGALDEVRALETRGLDPALPALKAVGYREFAAHLRGETSLDQALDAARQETRRYAKRQLTWFRNQTPDWERIVPLEHHHHHH”, the “soluble on expression in E. coli” value is “not soluble”.

As to “METIKIGVVGLGTVGTGVVKMLQAHQEKISEITGRKLELACVVVHNLKKHEQVDLGDVQMTDQIATLLDDPSIQIMVEVMGSIHPAKEYITQALQAGKHVVTANKDLIAQYGRELVQIARENHRDLFYEASVAGGIPILRTIDNSFAADRIQRVMGIVNGTTNYIMTQM”, the “soluble on expression in E. coli” value is listed as “not soluble”.

For “METLTLETPEARAETRTVLHVGCGAANPAKLPGDVFPAGDWRELRLDIDPGVAPDILASITGMPMVADGSVDAVWSSHNLEHLRPHEVPLALAEFHRVLRPGGFLLATLPDLQAVALLVAQGLLEEPAYVSALGPIAPLDILYGFRPAIAEGNDFMAHRTGFTAASLARHLGAAGFAEITVQTDGRFALWARAVRPA”, the “soluble on expression in E. coli” value is listed as “not soluble”.

The record behind these values is the DeepSol protein solubility set.
